From the domain aggregation screens of Martell et al. (2025) come the findings set out here.

The nature of this data set: soluble fraction after stress (log2 fold change); higher = more stays soluble; pooled small domains, quantitative proteomics. As to conditions: stress: 50 degC. An outline of the steps: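 Each library was heated to 50°C as a stress step. The libraries, made up of small protein domains, were pooled and analysed at high throughput by quantitative proteomics. The reported value is the base-two logarithm of the fold change in each protein's soluble amount after stress, taken as a measure of aggregation propensity. The higher the value, the more protein stays in solution.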
On to “HMTNSTGWSKSGGTQVTIREGETIYNLSRRYGVPAKSIMEANGIADATAVRAGQRISIPTYSY”, for which the “soluble fraction (log2)” value was 0.0505.

For “HMTNVDELIGKEAVVVKEIRPYTTGEVKLDGKVWRAMSESKQVYKVDEIVTVLRIEGVTMII”, the “soluble fraction (log2)” value is -0.419. As for “HMTNVETLVRMRLRSIRTTLGYSLDEIAERSNLSASTVSRIETGKRALSIDVLVPLAAALQVSVDDLLRAE”, the “soluble fraction (log2)” value is -2.43. Regarding “HMTNYREILRLRSLGLNHSRIAESMGISRPTVIAALQRAQTQELNWQAAESLSDIDLAQRLNP”, the “soluble fraction (log2)” value is -0.395. Next, “HMTNYYTVTFKEGDTVLKEVSVHSGDGVPYAVAPKRDDIVGWSYNGNTYTTDLNTLKIKKEVTFTAVT”: -0.222. In the case of “HMTPAIEKTAVIVFINGKKYYVHTVKSGETLYSIAKAYKVDEKVIKEHNPNVADGLRIDQTVKIPVPEQVK”, the “soluble fraction (log2)” value turned out to be 0.144.

In the case of “HMTPAPHESLTDREMEVLKLLAQGLSNQEIADKLFIGVKTVKYHITNIFSKLGVEDRTQAAIYAHKQGLA”, the “soluble fraction (log2)” value came out at 0.0163. “HMTPDDSYIAGYAAGILKHQFLIDAPELIVRNGTITIPADKVSAGDRAKVVQILSGIPGVTRVEVG”: the “soluble fraction (log2)” value is -0.0502.

As for “HMTPDVHRGDTITVSLRAGAIRVRVPAKALEEGAAGGEIRVVNLTGGREYRVRVTGPGTAEAIL”, the “soluble fraction (log2)” value was determined as 0.0275. As for “HMTPEGAYTVSEIVKVINSFADEYKVPFTMHVSGYKYEEIAQQLGLPIGTVKSRIFFARKRLQELLN”, the “soluble fraction (log2)” value is -0.952.

Turning to “HMTPEPVTMYITSLTEFRSEPNTEAGIIKLLDAYEEVEMIESRGEWSKISYGDQIGYILSEFLTAENRT”, the “soluble fraction (log2)” value was -0.0121. For the sequence “HMTPILTAQQVVAALQAAGYRNVHDLEFEHGRWEADAVNAAGQRVELHINPYTGAIERERLD”, the “soluble fraction (log2)” value was ≥ 0.62. Regarding “HMTPKTSVPKPGQTVVVRKGDTIYALARIHDITPADLIAWNRLDNPSQIYPGQVIRLYPQGA”, the “soluble fraction (log2)” value is -0.107. On to “HMTPKVDLTVAEDGSASAVIAGLRVEIDAAGKVTAVAPADGTTDLSSVAPEAVKEAMDNALAAYTASKG”, for which the “soluble fraction (log2)” value is 0.0555. Regarding “HMTPLFNQGEVLKGFVLQTGTNNRVLLQIGTAKVLADAQTPLKAGEQLTLRVEATGPRTVLQILG”, the “soluble fraction (log2)” value stood at 0.553.

For “HMTPLILTAQEGGERLDAFVASQVEDLTRSAAQRLLEQGAVTSGGKPLKKNAKTTPGMVVEVLLPDPQ”, the “soluble fraction (log2)” value worked out at 0.251. The result for “HMTPPPTNSREWMEWGISHGLDANLDRSGQVVFYTDDRVVADAAELSGADLERDNMGQFVIYTGAYDKG” reads 0.0665. Regarding “HMTPQEQWNNAYLLAKDYYDANGNLDIDEKYKTKDGFELGSWLTTQRNVYKRGKLSPEKTKKLEEIGISF”, the “soluble fraction (log2)” value is 0.128. For the sequence “HMTPQGALDYSRNAKYLRDQVTAINYLKQARLSLNTTDANYRQTLEQINQAIAKHNQALQQAGVQSQQLAT”, the “soluble fraction (log2)” value came to 0.0556. Next, “HMTPTPQQNNILVGQTGTTLTRLAPMGKVRVGEVTAEAKTIDGYINPRQSVEVIGFENTVVIVRAV”: 0.144; “HMTPVIINESGGDQDTRIEGLNDNNLLYVDASTDRVGVGVATPTQKLDVNGDVAISGGSLYLSQ”: -0.00396. For “HMTPVKAPLPGVVTKINVSVGQQVKKGENVLVLEAMKMENNIAAEADGTVSGIAVKAGDSVLEGAVLLTI”, the “soluble fraction (log2)” value amounted to 0.184. As for “HMTPVTYELTVQSGAGQRIDKYLSEQLADLTRSYLQKLLKDGGVTVNGKTVKSNYKLSENDQIFLEVPDA”, the “soluble fraction (log2)” value was 0.0372. As for “HMTPVYLNARQKQILAFLKREEPAKVGDIAHALKTISINTLKKDLLYLRQKNLIESHGVLKGTIYTVK”, the “soluble fraction (log2)” value is -1.41.

Regarding “HMTQEFIVPKVTGYTVEDAMNLSGVKDVFEITVDSTEKSDQPAGIILFQDPKDGSSRKSDLVIHVVVSAGS”, the “soluble fraction (log2)” value was -0.137. Next, “HMTQEQKQQISDQLRAYVEQKGSGNKAAASMNGVSSATISKVLAGKWETISEDMWRSIAAQTGH”: 0.106; “HMTQFSLTTEEINVLKKSYSEFTDSDKELFNKILEKYNKFKNESSNDIAFEAKILEKLQEIENFYE”: -0.126; “HMTQMSVLFSELEAKDAATIADKLRERNIPYELSNNGSTILIPQEVLHDTRLSLASEGLPES”: -0.0936. For the sequence “HMTQPAEINRLVEQMGSSDYKSRQEAYERLHQMGPGILDLIYPYRNHADPEIQTRVRELILSYRW”, the “soluble fraction (log2)” value is 0.264. For “HMTQQNRDELYRRMIDAGWDQLVRNGIRSLRVEQVAAAVGIAKGTFYHFFDSKDDFIYAMLMENRQ”, the “soluble fraction (log2)” value is -3.07. In the case of “HMTQSPLHWSHRPIDLSELLTYLDRDGAFVYASGHKAPFTEVVRGFEHLLNIRLGDPRDVKRSVLQR”, the “soluble fraction (log2)” value was -0.369. Regarding “HMTQTGEVIRWDAERGFGFIATADGRRHVFFHVRDFRGGAAPGVGLRVGFEEIQVGGKGPRAMDVRPL”, the “soluble fraction (log2)” value was -0.48. “HMTRDGMTKEAFDSLLEDIMNILLDNGLKATTMGSIAKSLKMSKRTLYEIFSSKSQMVEEAIIASHTKMM”: the “soluble fraction (log2)” value amounted to 0.15. On to “HMTREAILDTAEELLQRRGYNAFSYHHIAVQLGIRNAAIHYHFPAKEDLGIELVSRFRIRLAE”, for which the “soluble fraction (log2)” value is -0.146. As to “HMTRLSSREAQVISLVRDGMTNQQIAERLELSPLTIKNHVQNILRKLDVSNRAQAVAKAVKARLI”, the “soluble fraction (log2)” value was -0.3.

As to “HMTRRGPLTEGDRVQVRDPKGRFHQVILVRGGRFQSNRGGFNHDDVIGRPDGQVIITDEGRQFQIL”, the “soluble fraction (log2)” value was determined as 0.512. As for “HMTRYEQLAAQIRQQIEDNIWQSGDRLPSLRDTVKQSGLSLMTVLQSYQLLESQGWITARPQSGYYVAHR”, the “soluble fraction (log2)” value is 0.348. Regarding “HMTSGTLTLTQDTPVYTEPNKDGGVAYVQPQGDIQWDKYIFANGDNWYSFVQKNRDQEVRFYIAYSDVG”, the “soluble fraction (log2)” value is -0.0923.

Turning to “HMTSHSFVITEEVGQRLDRFISDQLDTVSRTMIQKHIRSGAVVVNGKQVKSNYLLVLNDRINIALK”, the “soluble fraction (log2)” value was -2.64. Next, “HMTSISMDEKVVLGWHQVTTGAANSGMDKVVSNTSGLNVISPTWFKLSDNKGNYISIASKDYVDAAHKKGL”: -0.232; “HMTSKTLSADGGENTRLDKFLSNHLPEISRTKIQKMINDGLVYVNQNYAKASLVLDGTELISYTIPD”: 0.0679.

Regarding “HMTSLTDDELSVVMLVREREISFDEITSETGFDAARLNSVLTMLKIKGIIDETTGKHYRISGGA”, the “soluble fraction (log2)” value was determined as 0.146. With “HMTSLVRTSNLDGFEPLARSIGVDPVMELMRFGIPPDALIRENMFISFIGFIRLLEHTALAG”, the “soluble fraction (log2)” value is 0.103.

Consider “HMTSMYYLNKAVKEGNAKAIRQLLSAGININVRKRETSTPLDFAIKYKQTEIADLLRKHGGKTAEELKAEE”, for which the “soluble fraction (log2)” value was -0.343. In the case of “HMTSNEKARNAASAERRADIVAAARELYEEQGLSKTSVQDITNRMGVARSLFYHYFPDKEAVTSAVLDDYV”, the “soluble fraction (log2)” value amounted to 0.244. On to “HMTSPELIELGERIRKRRQEMNLSQEALAEKAGISINTVSRVEGGQTAMSIEIFRKMIEILETDANGL”, for which the “soluble fraction (log2)” value was -0.212.

Regarding “HMTSRIHDYWTSPGQPGYAKIGWGTAGDFRRAKALIGEKIAANSPEDMRYLNQIIAQWHFDALGYWPGDH”, the “soluble fraction (log2)” value is -2.49.

With “HMTSRLLTPRQRYVFDTAMKEGFYDVPRRITLTELASVLDVAKSTLSAQLHRIESTVHHAYADDIRRRS”, the “soluble fraction (log2)” value was -2.35. Regarding “HMTSSQLNIEELERRMMMHLEQNGFITRSIYTNLTGRLKWKATEDLKIFVEKGLIRKMGRGNQMYYVKVE”, the “soluble fraction (log2)” value was -1.7. Next, “HMTSSQRDSILEFLKTRKDHPTADVVYMNVRKSFPNISLGTVYRNLTLLSDIGQIAKIRVGDGVDHFDADT”: -0.526.

Turning to “HMTSSSGTITADWLNVRSGAGTNFSRLGSIAGGTRLTVISVHGEWYKITASFEGEIRTGYVHSQYVQMDGE”, the “soluble fraction (log2)” value is -3.96. For “HMTSTEQQIEQFIGTLVSLGGSAGNQRLLEALGWQDSIYQRVKQQLIDDGRIRPGRGRGGSVVLAE”, the “soluble fraction (log2)” value was -0.074. Regarding “HMTSVAGIERFLASGAIKGMGAATAKLIVEHFGADTLNMLDMYPERLTEIKGIGPKKATAIIEGYRELS”, the “soluble fraction (log2)” value was -0.751.

Take “HMTSVMAWRLITPIPQHGIIRSSQVQLQKHAPNSLKFLDVDSSPVGKQVKHGIAAGHWLSKDDFTE”: the “soluble fraction (log2)” value was -0.937. Regarding “HMTTAASIGRLVRDARKQRGLTQHELASLLSTSQSAIHRIESGNQNLSLEMINRIAQALESPLIVPGG”, the “soluble fraction (log2)” value was -0.163. As to “HMTTIRQQAEVPLSAAGRRFDQALAEMFPAYSRSRLSGWIKAGAATLDGAPAAPRQLLRGGERVELDVELE”, the “soluble fraction (log2)” value was -0.0501. Take “HMTTKGGLVRDTVLNEFRDSEFTRREVELVLNGVASERTIRGALSEMVERGELTQVNFGISTRYRLNQ”: the “soluble fraction (log2)” value was -0.385.

Turning to “HMTTLEGIEKYLGSGMIRGIGPAYAGRLTKVFGEAVFDVIEQSPERLREVEGIGPKRVSRIVSGWAEQ”, the “soluble fraction (log2)” value was -0.264.

As for “HMTTLLNHLKGTRLEAGLSQQALARLAGISRQAYSALESGSSNPSTEVALRLARALKTSVDHLFSLPE”, the “soluble fraction (log2)” value was -0.989. For “HMTTQVPYTAKLININGGSVVNFRKEPGMNTTIIRTYPVGTEVTVLETGVNWSKVEIDGVTGYVSSYFL”, the “soluble fraction (log2)” value was -0.699.

With “HMTTRLLTPRQRQVFDIAIREGFYDSPRRISLTELADLLGVAKSTLSVQLQRVESTIVHTFSEEIRRRS”, the “soluble fraction (log2)” value is -2.57. For the sequence “HMTTRQREALLDYLSRHPDQPLTVREIAAGVEPDGVSLSAVYRNLAELEAAGLIRRESRPGSREAVVQYV”, the “soluble fraction (log2)” value was determined as 0.049. Regarding “HMTTTTTYITNTDAVNIRQQATTSSTSLGKLAKNTILSVKKKSGDWYQITYKKQTAYIHASLVDKKTAKVT”, the “soluble fraction (log2)” value was -0.556. For the sequence “HMTTVDYDALRAAILQQVVSEDTTPALTTENTEIKYKFKFGLDTWVDLDGGKIAPAVSAKSYEIQISFKG”, the “soluble fraction (log2)” value is 0.132. Take “HMTTYVNGSWSGWNGSTVVKLTDGSVWRQAEYHYEYHYAYRPQARLERDELFVEGMSRGVRV”: the “soluble fraction (log2)” value is -0.104. Take “HMTVADMQQKANVKRRNSNSHEAILDATVKLLGSSGYIDFSIEKVASQAGVGKQTIYRWWPSRADLVLEVW”: the “soluble fraction (log2)” value is -0.109. The result for “HMTVAEVEDRMEASRVRQALDAVGEPHRTTIALAYFTGLTHTEIAQRMGVPLGTVKSRIRDGMAKMRTHLG” reads -0.617; that for “HMTVDHDERRSMILEAFMRLAAREGLHAVSLRGVAAEAGISLRLVQYYFETKARLMQSGLTALET”, -0.281.
